# T1: His-ArgP (Escherichia coli (ASKA collection)) (UniProt P0A8S1)
# T1 sequence: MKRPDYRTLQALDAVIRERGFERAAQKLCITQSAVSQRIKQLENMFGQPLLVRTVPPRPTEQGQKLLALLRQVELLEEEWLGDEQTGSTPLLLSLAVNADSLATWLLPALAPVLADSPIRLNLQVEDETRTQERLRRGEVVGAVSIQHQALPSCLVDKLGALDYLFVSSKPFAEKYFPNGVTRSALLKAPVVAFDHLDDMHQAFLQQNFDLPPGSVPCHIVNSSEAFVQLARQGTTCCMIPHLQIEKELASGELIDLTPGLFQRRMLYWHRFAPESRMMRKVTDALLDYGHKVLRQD
# T2: LsrB-His (Agrobacterium tumefaciens) (UniProt A9CI74)
# T2 sequence: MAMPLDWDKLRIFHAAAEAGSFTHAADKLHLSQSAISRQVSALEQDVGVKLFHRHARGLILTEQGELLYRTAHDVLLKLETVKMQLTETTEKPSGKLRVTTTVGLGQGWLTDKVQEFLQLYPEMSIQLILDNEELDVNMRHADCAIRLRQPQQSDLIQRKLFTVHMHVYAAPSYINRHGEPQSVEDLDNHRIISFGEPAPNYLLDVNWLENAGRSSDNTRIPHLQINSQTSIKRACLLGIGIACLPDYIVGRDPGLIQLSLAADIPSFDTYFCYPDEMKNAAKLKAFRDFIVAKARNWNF
# B1: LsrB (LysR-type symbiosis regulator B) of Agrobacterium tumefaciens (natural protein)
# chain: MAMPLDWDKLRIFHAAAEAGSFTHAADKLHLSQSAISRQVSALEQDVGVKLFHRHARGLILTEQGELLYRTAHDVLLKLETVKMQLTETTEKPSGKLRVTTTVGLGQGWLTDKVQEFLQLYPEMSIQLILDNEELDVNMRHADCAIRLRQPQQSDLIQRKLFTVHMHVYAAPSYINRHGEPQSVEDLDNHRIISFGEPAPNYLLDVNWLENAGRSSDNTRIPHLQINSQTSIKRACLLGIGIACLPDYIVGRDPGLIQLSLAADIPSFDTYFCYPDEMKNAAKLKAFRDFIVAKARNWNF
# notes: LsrB, LysR-type transcriptional regulator of Agrobacterium tumefaciens (atu2186); also called Atu2186; LsrB^His; source: E. coli BL21 (DE3), purified (His-tagged or Strep-tagged; Strep-Tactin resin for the Strep-tagged form)
# Legend:
# [1] = molecular target: T1, His-ArgP (Escherichia coli (ASKA collection)); test: EMSA; conditions: Radioactive EMSA: 20 min at 30 C, 6% polyacrylamide gel, buffer by reference (Müller et al.); ArgP agarose EMSA: 10 mM Tris-HCl pH 8.5, 10 mM MgCl2, 100 mM …
# [2] = molecular target: T2, LsrB-His (Agrobacterium tumefaciens); test: EMSA; conditions: Radioactive EMSA: 20 min at 30 C, 6% polyacrylamide gel, buffer by reference (Müller et al.); ArgP agarose EMSA: 10 mM Tris-HCl pH 8.5, 10 mM MgCl2, 100 mM …
# [3] = molecular target: the molecule itself; test: cryo-EM structure; single-particle cryo-EM of purified LsrB (1.2 mg/ml), without DNA; DNA-binding domain excluded from the analysis; AlphaFold 3 model of the SBD dimer rigid-body fitted into the 3.9 Å map
molecule,measurement,setting,value
CGCTTCTGTGGTTTTAGTTTCGGAAACCATACAAAAATGCTATCCATCTTAAAAATGAGGCGCGATTGTAGCAGACGATTGGCAATCCTTCCGGCAGAAATACACGGTTATAAGACACCTTCATGATCGCCCAGGGATTATAAGTAAAGCAGCCAATCTCTTTTCTGGCGAATGCATGCTGAAGGCGCTGCGTCACGAAATCGACACAGCACCAGCATGTTCTTGTACAGCAACTTAACGCGGCACATTTGCGGGATCGCAATAGTCCAGAAAGCG (double strand) [lysP promoter 276 bp],binding,[1],binds
GCGGCTAAACGTCTTTTCGCTGGGGATGGCGGAGAAGCCGACAATCCACCTTAGGTTTTGGAGAACACGAAAGATGAAATTTAATCGCAGACATATCGCACTGGCCGCTTTGGTCTCGACGGGCCTGGTCACGCAGGCTTCTGCCGCTGATGATG (double strand) [ampC promoter 155 bp],binding,[2],no binding
B1,stoichiometry N,[3],2

# Reference: paper PMC11975290, “Two redox-responsive LysR-type transcription factors control the oxidative stress response of Agrobacterium tumefaciens” (Nucleic Acids Research, 2025)
